Patent US20230285578A1 (INDIANA UNIVERSITY RESEARCH AND TECHNOLOGY, published 2023)
Starred links: 1 amine or outer side, 2 acyl side, 3 side chain; linkers in the order of their positions; H or OH if unused. Groups on a side chain read outwards from the residue. No end group written: not given here. *: point of attachment. C18 diacid = O=C(O)CCCCCCCCCCCCCCCCC(=O)*; γGlu = O=C(O)[C@H](CCC(=O)[*:2])N[*:1]; AEEA = NCCOCCOCC(=O)O

What was measured:
Experiment in all cases: cell-based or functional assay
PTH1 receptor [1] = target: T1, PTH1 receptor (UniProt Q03431 27-593, limits assumed)
T1 sequence (looked up): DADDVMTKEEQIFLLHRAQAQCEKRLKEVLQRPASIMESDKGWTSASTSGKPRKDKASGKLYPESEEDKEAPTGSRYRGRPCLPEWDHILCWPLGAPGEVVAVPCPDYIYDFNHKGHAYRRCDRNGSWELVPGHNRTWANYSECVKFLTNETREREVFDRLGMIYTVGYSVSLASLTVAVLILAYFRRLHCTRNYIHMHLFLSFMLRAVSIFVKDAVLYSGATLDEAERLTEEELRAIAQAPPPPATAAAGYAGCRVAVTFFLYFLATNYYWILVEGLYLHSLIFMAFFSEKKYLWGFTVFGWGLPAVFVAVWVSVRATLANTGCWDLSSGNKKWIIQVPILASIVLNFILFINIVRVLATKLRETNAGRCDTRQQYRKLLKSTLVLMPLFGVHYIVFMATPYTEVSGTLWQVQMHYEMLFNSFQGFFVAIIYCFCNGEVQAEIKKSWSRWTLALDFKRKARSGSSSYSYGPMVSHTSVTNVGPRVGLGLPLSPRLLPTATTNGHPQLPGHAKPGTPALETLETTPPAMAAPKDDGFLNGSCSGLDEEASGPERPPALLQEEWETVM

PTH1 receptor, Q03431 = target: T2, PTH1 receptor, Q03431
T2 chain: T1 sequence (looked up)

PTH1 receptor [2] = target: T1, PTH1 receptor; remark: listed apart in the source
PTH1 receptor [3] = target: T1, PTH1 receptor; remark: listed apart in the source
PTH1 receptor [4] = target: T1, PTH1 receptor; remark: listed apart in the source
PTH1 receptor [5] = target: T1, PTH1 receptor; remark: listed apart in the source
PTH1 receptor [6] = target: T1, PTH1 receptor; remark: listed apart in the source
PTH1 receptor [7] = target: T1, PTH1 receptor; remark: listed apart in the source

B1: PTH(1-35)a, dK-1(γE-diacidC18), N(Me)G0, K35(γE-diacidC18) (peptide)
peptide: XXSVSEIQLMHNLGKHLNSMERVEWLRKKLQDVHNFX
modifications: d-Lys at position -1 with side chain acylated with γE-COC16H32CO2H; N-methyl-Gly (sarcosine) at position 0; Lys35 side chain acylated with γE-COC16H32CO2H; C-terminal amide
B1 was tested, and the “Potency EC50 (cAMP-responsive luciferase reporter, HEK293 cells co-transfected with the PTH1 receptor)” value (“Potency EC50” for short) (PTH1 receptor [1]) was 200 nM.

SVSEIELMHNLGKHLNSMERVEWLRKKLQDVHK([γGlu-miniPEG-miniPEG-γGlu-C18 diacid]) (ends and bridges not checked) [SEQ ID NO: 118] showed an EC50 pM (cAMP Hunter Teriparatide Bioassay, CHO-K1 PTHR1 cells; FIG. 13A) (PTH1 receptor, Q03431) of 80.3 pM.

Binder SVSEIQLMHNLGKHLNSMERVEWLRKKLEDVHK([γGlu-miniPEG-miniPEG-γGlu-C18 diacid]) (ends and bridges not checked) [SEQ ID NO: 124] has an EC50 pM (cAMP Hunter Teriparatide Bioassay, CHO-K1 PTHR1 cells; FIG. 13B) (PTH1 receptor, Q03431) of 43.1 pM.

B2: PTH(1-33), K33(γE-2xOEG-γE-diacidC18) (peptide)
peptide: SVSEIQLMHNLGKHLNSMERVEWLRKKLQDVHX
modifications: Lys33 side chain acylated with γE-(miniPEG)2-γE-COC16H32CO2H; C-terminal free acid
In the case of B2, the “EC50 pM (cAMP Hunter Teriparatide Bioassay, CHO-K1 PTHR1 cells; FIG. 11)” value (PTH1 receptor [2]) is reported as 10 pM, the “EC50 pM (cAMP Hunter Teriparatide Bioassay, CHO-K1 PTHR1 cells; FIG. 13B)” value (PTH1 receptor [3]) is reported as 19.3 pM and the “EC50 pM (cAMP Hunter Teriparatide Bioassay, CHO-K1 PTHR1 cells; FIG. 13A)” value (PTH1 receptor [4]) is reported as 10.7 pM. The “EC50 pM (cAMP Hunter Teriparatide Bioassay, CHO-K1 PTHR1 cells; FIG. 12)” value (PTH1 receptor [5]) was 36.6 pM and the “EC50 pM (cAMP Hunter Teriparatide Bioassay, CHO-K1 PTHR1 cells; FIG. 8A)” value (PTH1 receptor [6]) was 31 pM.

With SVSEIQLMHNLGKHLNSXERVEWLRKKLQDVHX (site-specifically oxidised to methionine sulfoxide (position not given)) [SEQ ID NO: 110] the “EC50 pM (cAMP Hunter Teriparatide Bioassay, CHO-K1 PTHR1 cells; FIG. 12)” value (PTH1 receptor [5]) was 41.7 pM.

With SVSEIQLMHNLGKHLNSMERVEWLRKKLQDVHNFX (Lys35 side chain acylated with γE-COC16H32CO2H (C18 diacid); C-terminal amide) [PTH(1-35)a, K35(γE-diacidC18)] the “Potency EC50” value (PTH1 receptor [1]) was 2.9 nM.

B3: PTH(1-34), dK-1(γE-diacidC18), N(Me)G0 (peptide)
peptide: XXSVSEIQLMHNLGKHLNSMERVEWLRKKLQDVHNF
modifications: d-Lys at position -1 with side chain acylated with γE-COC16H32CO2H; N-methyl-Gly (sarcosine) at position 0; C-terminal free acid
With B3 the “Potency EC50” value (PTH1 receptor [1]) was 45.5 nM.

For SVSEIQLMHNLGKHLDSMERVEWLRKKLQDVHK([γGlu-miniPEG-miniPEG-γGlu-C18 diacid]) (ends and bridges not checked) [SEQ ID NO: 122], the EC50 pM (cAMP Hunter Teriparatide Bioassay, CHO-K1 PTHR1 cells; FIG. 13B) (PTH1 receptor, Q03431) was 14.3 pM.

B4: PTH(1-33), A8, K33(γE-2xOEG-γE-diacidC18) (peptide)
peptide: SVSEIQLAHNLGKHLNSMERVEWLRKKLQDVHK([γGlu-AEEA-AEEA-γGlu-C18 diacid])-OH
modifications: N-terminus assumed
SMILES: CC[C@H](C)[C@H](NC(=O)[C@H](CCC(=O)O)NC(=O)[C@H](CO)NC(=O)[C@@H](NC(=O)[C@@H](N)CO)C(C)C)C(=O)N[C@@H](CCC(N)=O)C(=O)N[C@@H](CC(C)C)C(=O)N[C@@H](C)C(=O)N[C@@H](Cc1c[nH]cn1)C(=O)N[C@@H](CC(N)=O)C(=O)N[C@@H](CC(C)C)C(=O)NCC(=O)N[C@@H](CCCCN)C(=O)N[C@@H](Cc1c[nH]cn1)C(=O)N[C@@H](CC(C)C)C(=O)N[C@@H](CC(N)=O)C(=O)N[C@@H](CO)C(=O)N[C@@H](CCSC)C(=O)N[C@@H](CCC(=O)O)C(=O)N[C@@H](CCCNC(=N)N)C(=O)N[C@H](C(=O)N[C@@H](CCC(=O)O)C(=O)N[C@@H](Cc1c[nH]c2ccccc12)C(=O)N[C@@H](CC(C)C)C(=O)N[C@@H](CCCNC(=N)N)C(=O)N[C@@H](CCCCN)C(=O)N[C@@H](CCCCN)C(=O)N[C@@H](CC(C)C)C(=O)N[C@@H](CCC(N)=O)C(=O)N[C@@H](CC(=O)O)C(=O)N[C@H](C(=O)N[C@@H](Cc1c[nH]cn1)C(=O)N[C@@H](CCCCNC(=O)CC[C@H](NC(=O)COCCOCCNC(=O)COCCOCCNC(=O)CC[C@H](NC(=O)CCCCCCCCCCCCCCCCC(=O)O)C(=O)O)C(=O)O)C(=O)O)C(C)C)C(C)C
For B4, the “in vitro potency (fold reduction against the analog without A8)” value (PTH1 receptor [7]) was about 100 fold.

Work on SVSEIQLMHDLGKHLNSMERVEWLRKKLQDVHK([γGlu-miniPEG-miniPEG-γGlu-C18 diacid]) (ends and bridges not checked) [SEQ ID NO: 120] yielded an EC50 pM (cAMP Hunter Teriparatide Bioassay, CHO-K1 PTHR1 cells; FIG. 13A) (PTH1 receptor, Q03431) of 10.9 pM.
